Source: the supplement of paper PMC10724198
± gives the standard deviation of the averaged measurements.

tested on: Saccharomyces cerevisiae; experiment: protein stability index of tFT-peptide fusion (C-terminal peptide) (PSI (0-1 scale)); higher = more stable (slower turnover); details: genetic background: wild type; temperature: 30 C
Method: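 Multiplexed protein stability (MPS) profiling in S. cerevisiae. Random 12-aa peptides (tFT-X12 library) are fused to the C-terminus of a sfGFP-mCherry tandem fluorescent timer, after mCherry and a GGGS linker. Cells are FACS-sorted into 8 mCherry/sfGFP bins and deep-sequenced. The protein stability index (PSI) is the read-weighted bin average, scaled from 0 (unstable) to 1 (stable). Only peptides with >10 reads are reported; cells were grown at 30 °C in SC-His with glucose.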
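Also: PSI is a weighted mean of sequencing reads over stability bins, variants kept only with over 10 reads, mCherry proximal and sfGFP distal, peptide attached via GGGS linker.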

In order of rising protein stability index:
1. DAAVQSGGRVAG  0.481 ± 0.03
2. EKEFLWKAISAV  0.504 ± 0.016
3. CSVFFFMGFLFA  0.511 ± 0.13
4. CVSWFWVGYWWG  0.516 ± 0.0086
5. DSGVAVVLVGCV  0.529 ± 0.013
6. DCSCRRSISVLV  0.54 ± 0.024
7. EGAQVVLVRVGV  0.547 ± 0.012
8. CVRARQLTLCIP  0.5505 ± 0.0036
9. CVFGSHCRVLVV  0.556 ± 0.028
10. CVVVSCVCPFVV  0.5739 ± 0.0036
11. EGLCVLMTQVGG  0.576 ± 0.016
12. CVVYLDVRLPVT  0.58 ± 0.023
13. CSVSACTVSLCC  0.5849 ± 0.0017
14. CTLSFRVAFFSL  0.5848 ± 0.00071
15. ECYLYGSMDGFI  0.588 ± 0.036
16. DLHCRSAILALL  0.594 ± 0.034
17. CVTGPIDKLRLL  0.5947 ± 0.0023
18. CVVHLLIFGLCI  0.5963 ± 0.0046
19. CYPIPEGWIGLM  0.607 ± 0.045
20. CVLVVGVPAGGG  0.611 ± 0.028
21. DCVSLFRVPRVA  0.612 ± 0.028
22. DAYLGKRESRLW  0.615 ± 0.07
23. EAWRQGRAGRGP  0.6148 ± 0.0034
24. CYFLAMPLYFPL  0.622 ± 0.014
25. CSTFFVRSLSFI  0.63 ± 0.034
26. CVGSVRYRIRGS  0.63 ± 0.06
27. DLPRLGLPRRAC  0.63 ± 0.047
28. DHVSVFSFVCFL  0.633 ± 0.015
29. DPLSPLPPPPPP  0.635 ± 0.14
30. CVLARVWMRGGR  0.636 ± 0.023
31. DSPASHWSVKSL  0.638 ± 0.043
32. DWGGRRVTEEEG  0.641 ± 0.029
33. DSCPGAAGGRGG  0.642 ± 0.043
34. EGEEVNTGGEEA  0.642 ± 0.017
35. CVLYQLPPAYSF  0.643 ± 0.029
36. DGVAMCGLKASL  0.643 ± 0.1
37. EGGLDPFRVIMG  0.643 ± 0.029
38. DPRAGLGLLELT  0.644 ± 0.067
39. ECPYFSHTPVAV  0.644 ± 0.032
40. DNSSLGSIGTDI  0.645 ± 0.046
41. CSVRGDVANYAF  0.6457 ± 0.0028
42. EKGKGREIKKGE  0.646 ± 0.048
43. DREKRKSGGERR  0.647 ± 0.039
44. EEAGETAGGRRE  0.648 ± 0.093
45. EGEGPRGNGSGA  0.648 ± 0.043
46. EGVGRRICSPQA  0.648 ± 0.031
47. DGWTLCRVGCVG  0.652 ± 0.061
48. DLTPLSSSRLPP  0.652 ± 0.04
49. CVAAASPFRLLY  0.654 ± 0.04
50. CTPSSLRPLMPS  0.655 ± 0.073
51. DTIQFLQCYRPI  0.655 ± 0.035
52. DEIRGERETKGR  0.656 ± 0.036
53. EGTPGARSQGRE  0.662 ± 0.035
54. DAGGGKLFGNSK  0.663 ± 0.019
55. DITKNGKSKMLK  0.664 ± 0.051
56. DRGSGRFVRGGL  0.664 ± 0.083
57. DTYKDSHLNRRI  0.664 ± 0.022
58. DRLGFGPVSRID  0.665 ± 0.064
59. EESRVRTTNNTT  0.666 ± 0.057
60. DNLFSPTLLWEL  0.6674 ± 0.0034
61. DYLSSPLSSPSP  0.667 ± 0.066
62. DYSTLFVSVADP  0.667 ± 0.0069
63. EGSRRQERAGRQ  0.6668 ± 0.0028
64. DKKNIRIYNKTL  0.669 ± 0.042
65. DREKGGLREADQ  0.669 ± 0.035
66. DVCFIRRRYKKI  0.669 ± 0.041
67. EGDGLGWGGQGG  0.67 ± 0.013
68. CVYGILPRPPDF  0.671 ± 0.035
69. DVHNRSPNRAPE  0.671 ± 0.042
70. EGRPGGVGEGSQ  0.671 ± 0.011
71. DFVLSASIGFTR  0.673 ± 0.035
72. DRKDGVSVSVGY  0.675 ± 0.05
73. DVNTGYHFLRDL  0.6757 ± 0.0015
74. EGVVGGRWCGRG  0.676 ± 0.082
75. ECVGSSKVYMLL  0.677 ± 0.092
76. CTRCKRDDYNIE  0.6803 ± 0.006
77. DLSDPGHSLSIL  0.68 ± 0.055
78. EGRCPAMRGAFG  0.6797 ± 0.0041
79. DKGTMNRARGGS  0.683 ± 0.024
80. DLQACGATSKAS  0.683 ± 0.059
81. CTCSGELSLRGV  0.684 ± 0.011
82. DMPIVVDGSLVR  0.684 ± 0.027
83. EARMGGGRCGTG  0.684 ± 0.008
84. DDGRRRAERGGG  0.685 ± 0.047
85. DICSNSGRQRFL  0.685 ± 0.013
86. DPAPSPTGMCTR  0.688 ± 0.016
87. EEPVVSNPPLLA  0.688 ± 0.033
88. DKLLTYTLGARI  0.69 ± 0.016
89. DRSRSPCPCSSP  0.6898 ± 0.0022
90. DDAVTHTLWVSE  0.692 ± 0.012
91. DSTTGALILLPV  0.692 ± 0.021
92. EFFAPDVVALMR  0.692 ± 0.17
93. DILLPFQFLDDF  0.6927 ± 0.00039
94. DGSGPSWGRKGR  0.6942 ± 0.0043
95. EIDAKNRDEETN  0.694 ± 0.019
96. EILQDRAVSKGR  0.697 ± 0.039
97. CVQCRRPSEWLV  0.698 ± 0.033
98. DERLNGWERGDV  0.698 ± 0.07
99. CTRRACDVRAVL  0.699 ± 0.025
100. DGFWGGASHQGW  0.699 ± 0.0089
101. EELGRGLESLGL  0.699 ± 0.076
102. DDSVGKLFYCLF  0.7 ± 0.03
103. DTDIHRKRTRQV  0.7 ± 0.037
104. DLAIPPPRPRFF  0.701 ± 0.013
105. EHLQTHYLWSTG  0.701 ± 0.062
106. DIIRKKNKQGRI  0.702 ± 0.035
107. EEGGEVREGKQA  0.702 ± 0.019
108. DGSLTMTRTGFR  0.704 ± 0.021
109. DVRLGSQGSFRW  0.705 ± 0.01
110. DDDHRKITGTSR  0.707 ± 0.091
111. DNSDIKKGARRI  0.707 ± 0.014
112. DDFQVFCSNGMG  0.708 ± 0.018
113. EITRRAQHWKAK  0.708 ± 0.018
114. DPPLSGRAKGPH  0.709 ± 0.02
115. EERNNQRKKRKG  0.709 ± 0.038
116. EFPRHDLDCSLV  0.7095 ± 0.00082
117. DRSRESSMSLPD  0.711 ± 0.0076
118. CVAGHPPASPPP  0.712 ± 0.059
119. EKEKKKVHRQEE  0.712 ± 0.059
120. DTSRGDWEVFLI  0.713 ± 0.061
121. DVERKKIKIARQ  0.714 ± 0.047
122. ECVERYLFGEGA  0.71403 ± 0.00042
123. DSGTIWFPTHFV  0.7151 ± 0.0044
124. DEDIHQTIGKKG  0.716 ± 0.056
125. EGDTPFKNRVKF  0.716 ± 0.061
126. DACRLLGGRRCG  0.717 ± 0.07
127. DRRNNRLIRRNQ  0.7174 ± 0.0045
128. DEMNEGHVPPGV  0.718 ± 0.071
129. DIWEFYNNLYSS  0.719 ± 0.013
130. DQFRLLQYWEAS  0.72 ± 0.048
131. DFSPPSPLPLPL  0.721 ± 0.01
132. CVGSLGVVVGWG  0.724 ± 0.013
133. DILRSGVYDVCK  0.7251 ± 0.00083
134. DVRYQSLRRSGF  0.725 ± 0.028
135. EDVEGVWVKGCE  0.725 ± 0.17
136. CYIGGEVEFVGW  0.727 ± 0.0094
137. DIERSAAPRLLL  0.727 ± 0.042
138. DQVGLVLSDLIY  0.7272 ± 0.00085
139. EAGMGVGRCGTG  0.728 ± 0.01
140. DLLCLWEFPSIP  0.731 ± 0.12
141. DRPSPGLALGGP  0.7314 ± 0.0023
142. DQTPRWQRCTRQ  0.733 ± 0.12
143. EERNSVRGYTES  0.734 ± 0.028
144. EEHVIQNIKCKN  0.738 ± 0.037
145. EGWLVDVDRIVG  0.741 ± 0.076
146. DAPLGDLRAYTT  0.747 ± 0.028
147. DCWAGWGLCGWG  0.748 ± 0.044
148. DGHSAAAFCVRG  0.748 ± 0.1
149. DRPPYTPHPPYP  0.7521 ± 0.0073
150. DDSSSFPSLLSF  0.753 ± 0.069
151. DICFGLLPPWPA  0.755 ± 0.057
152. DGPSPAASPPRF  0.757 ± 0.095
153. DVWVLAANSSLG  0.758 ± 0.1
154. ECGGAVALSDRA  0.7672 ± 0.0018
155. CWVHGRWVSGAS  0.813 ± 0.051
